Laboratory results taken from patent US20250163182A1 (Janssen / Centocor, published 2025).

T1: cynomolgus monkey ENPP3 (cynomolgus monkey, UniProt A0A2K5TKP4 46-874)
T1 construct: also called cyno ENPP3
T1 sequence: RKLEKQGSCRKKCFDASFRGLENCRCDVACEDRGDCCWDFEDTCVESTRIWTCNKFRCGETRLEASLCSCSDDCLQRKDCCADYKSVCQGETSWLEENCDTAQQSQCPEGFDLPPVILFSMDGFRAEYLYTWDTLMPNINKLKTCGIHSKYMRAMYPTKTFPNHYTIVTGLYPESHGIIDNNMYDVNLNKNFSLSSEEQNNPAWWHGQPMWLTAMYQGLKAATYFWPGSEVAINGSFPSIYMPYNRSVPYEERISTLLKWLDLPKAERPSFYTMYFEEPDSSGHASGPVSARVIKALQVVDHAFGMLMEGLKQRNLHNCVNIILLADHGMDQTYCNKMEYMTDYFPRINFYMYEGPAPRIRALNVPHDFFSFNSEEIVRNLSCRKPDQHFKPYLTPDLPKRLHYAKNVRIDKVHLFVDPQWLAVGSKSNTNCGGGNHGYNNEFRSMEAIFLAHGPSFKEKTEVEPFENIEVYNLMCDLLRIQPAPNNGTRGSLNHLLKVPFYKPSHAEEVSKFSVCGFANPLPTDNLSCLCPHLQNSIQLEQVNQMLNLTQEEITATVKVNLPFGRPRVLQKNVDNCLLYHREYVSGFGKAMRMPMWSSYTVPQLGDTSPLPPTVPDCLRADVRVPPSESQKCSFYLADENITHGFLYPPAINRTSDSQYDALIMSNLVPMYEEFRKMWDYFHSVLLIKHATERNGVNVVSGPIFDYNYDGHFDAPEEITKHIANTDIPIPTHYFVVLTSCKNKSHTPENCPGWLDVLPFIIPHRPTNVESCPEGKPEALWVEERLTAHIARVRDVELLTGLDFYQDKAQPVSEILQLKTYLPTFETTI

T2: human ENPP3 (human, UniProt O14638 46-875, limits assumed)
T2 construct: neither the construct nor the method is stated; also called ectonucleotide pyrophosphatase/phosphodiesterase family member 3
T2 sequence (looked up): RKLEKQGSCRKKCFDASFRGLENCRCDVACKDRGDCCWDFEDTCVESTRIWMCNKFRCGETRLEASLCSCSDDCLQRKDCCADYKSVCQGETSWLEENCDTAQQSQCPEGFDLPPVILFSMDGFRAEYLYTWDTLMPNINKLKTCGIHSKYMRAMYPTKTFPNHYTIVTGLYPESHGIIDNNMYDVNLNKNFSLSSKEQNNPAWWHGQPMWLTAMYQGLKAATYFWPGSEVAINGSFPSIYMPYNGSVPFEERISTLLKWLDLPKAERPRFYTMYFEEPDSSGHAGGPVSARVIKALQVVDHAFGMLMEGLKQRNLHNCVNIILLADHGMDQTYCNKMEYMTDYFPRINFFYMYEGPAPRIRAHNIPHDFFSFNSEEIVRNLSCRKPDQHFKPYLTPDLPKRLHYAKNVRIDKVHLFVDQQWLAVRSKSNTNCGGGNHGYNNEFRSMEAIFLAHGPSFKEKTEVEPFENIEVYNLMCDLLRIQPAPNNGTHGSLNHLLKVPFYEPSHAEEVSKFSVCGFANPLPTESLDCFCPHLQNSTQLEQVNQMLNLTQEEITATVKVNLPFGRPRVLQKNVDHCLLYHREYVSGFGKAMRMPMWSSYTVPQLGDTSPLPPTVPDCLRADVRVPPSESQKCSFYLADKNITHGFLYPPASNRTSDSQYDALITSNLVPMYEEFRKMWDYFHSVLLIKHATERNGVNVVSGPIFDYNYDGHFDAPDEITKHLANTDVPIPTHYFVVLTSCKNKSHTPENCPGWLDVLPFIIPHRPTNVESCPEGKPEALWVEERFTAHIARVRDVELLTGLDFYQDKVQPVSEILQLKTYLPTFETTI


Tests used:
[1] = biological target: T1, cynomolgus monkey ENPP3; assay: binding affinity to cyno ENPP3; method not stated
[2] = biological target: T2, human ENPP3; assay: binding affinity to human ENPP3; method not stated

Kd [1]	Kd [2]	Binder
9.58 nM	0.193 nM	NPP3B101 (antibody, V domains shown, mAb from Ablexis Kappa mice) VH: QVQLQESGPGLVKTSETLSLTCTVSGGSISSHYWSWIRQPPGKGLEWIGNIFYSGSTNYNPSLKSRVTMSVDTSKNHFSLKLISVTTADTAIYYCARHDHVWFDPWGQGTLVTVSS VL: EIVLTQSPGTLSVFPGERATLSCRASQSVSRNLVWYQQKPGQAPRLLIYGASTRATGIPDRFSGSGSGTEFTLTISSLQSEDFAVYYCQQYNNWPPWTFGQGTKVEIK
109 nM	0.443 nM	NPP3B61 (antibody, V domains shown, mAb from Ablexis Kappa mice) VH: QVQLQESGPGLVRPSETLSLTCTVSGGSISSYYWSWIRQPAGKGLEWIGRIYTTGRIYTSGYTNYNPSLKSRVTMSIDTSKIQFSLRLNSVTAADTAVYWCARGGELFTDGFDIWGQGTMVTVSS VL: EIVMTQSPGTLSLSPGERATLSCRASQSVISTYLAWYQQNPGQAPRLLIYGASSRATGIPDRFSGSGSGTDFTLTISRLEPEDFAVYYCQQYDTSPITFGQGTRLEIK
12 nM	0.258 nM	NPP3B62 (antibody, V domains shown, mAb from Ablexis Kappa mice) VH: QVQLQESGPGLVRPSETLSLTCTVSGGSISSYYWSWIRQPAGKGLEWIGRIYTTGRIYTSGYTNYNPSLKSRVTMSIDTSKIQFSLRLNSVTAADTAVYWCARGGELFTDGFDIWGQGTMVTVSS VL: EIVMTQSPGTLSLSPGERATLSCRASQSVISTYLAWYQQNPGQAPRLLIYGASSRATGIPDRFSGSGSGTDFTLTISRLEPEDFVVYYCQQYDTSPITFGQGTRLEIK
